PMC3510010
Read-outs that look alike come from different tables or passages of the source.

Tests used:
Experiment in all cases: F-EMSA
POS-1-RBD (80-180) = POS-1-RBD (80-180) (Caenorhabditis elegans, UniProt G5EF15 80-180)
SPN-4-RBD = target: T1, SPN-4-RBD (Caenorhabditis elegans, UniProt G5EF02 50-135)
T1 sequence: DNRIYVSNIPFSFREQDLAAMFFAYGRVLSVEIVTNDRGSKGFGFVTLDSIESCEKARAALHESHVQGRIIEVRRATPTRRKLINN

GLD-1(135-336) [1] = target: T2, GLD-1(135-336) (Caenorhabditis elegans, UniProt Q17339 135-336)
T2 sequence: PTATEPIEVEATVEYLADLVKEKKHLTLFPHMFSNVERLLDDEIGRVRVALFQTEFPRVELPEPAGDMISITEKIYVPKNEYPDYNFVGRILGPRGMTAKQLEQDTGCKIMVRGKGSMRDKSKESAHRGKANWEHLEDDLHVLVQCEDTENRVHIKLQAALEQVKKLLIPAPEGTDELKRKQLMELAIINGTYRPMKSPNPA

POS-1(1-206) [2] = target: T3, POS-1(1-206) (Caenorhabditis elegans, UniProt G5EF15 1-206)
POS-1(1-206) [3] = target: T3, POS-1(1-206); remark: listed apart in the source
GLD-1(135-336) [4] = target: T2, GLD-1(135-336); remark: listed apart in the source
POS-1(1-206) [5] = target: T3, POS-1(1-206); remark: listed apart in the source
POS-1(1-206) [6] = target: T3, POS-1(1-206); remark: listed apart in the source
GLD-1(135-336) [7] = target: T2, GLD-1(135-336); remark: listed apart in the source

T3 sequence (G5EF15 1-206): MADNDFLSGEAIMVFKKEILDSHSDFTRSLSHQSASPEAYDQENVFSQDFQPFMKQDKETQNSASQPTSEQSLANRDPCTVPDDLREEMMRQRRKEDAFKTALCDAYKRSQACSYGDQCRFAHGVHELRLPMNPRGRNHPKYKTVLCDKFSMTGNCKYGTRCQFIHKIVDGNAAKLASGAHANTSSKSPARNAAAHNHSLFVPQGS
Sequence of POS-1-RBD (80-180) (G5EF15 80-180): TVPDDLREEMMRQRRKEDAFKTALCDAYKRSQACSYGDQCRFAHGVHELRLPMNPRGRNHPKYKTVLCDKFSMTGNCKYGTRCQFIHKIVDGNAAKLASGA

## UUUUUCUUAUUCUAGACUAAUAUUGUAAGCU (ssRNA) [glp-1 WT]
POS-1-RBD (80-180)
  Kd: 30 ± 17 nM
SPN-4-RBD
  binding result: no binding
GLD-1(135-336) [1]
  Kd: 70 ± 10 nM
POS-1(1-206) [2]
  Kd: 19 ± 2 nM

## UUUUUCUUAUUCUAGACCAAUAUUGUAAGCU (ssRNA) [∆GBM]
POS-1(1-206) [3]
  Kd: 21 ± 1 nM

## UUUUUCUCCCUCUAGACUAAUAUUGUAAGCU (ssRNA) [∆5′ PRE]
GLD-1(135-336) [4]
  Kd: 33 ± 7 nM
POS-1(1-206) [5]
  Kd: 55 ± 4 nM

## UUUUUCUUAUUCUAGACUAACCCUGUAAGCU (ssRNA) [∆3′ PRE]
GLD-1(135-336) [4]
  Kd: 25 ± 3 nM
POS-1(1-206) [6]
  Kd: 53 ± 1 nM

## UUUUUCUCCCUCUAGACUAACCCUGUAAGCU (ssRNA) [∆5′ 3′ PRE]
POS-1(1-206) [3]
  Kd: 310 ± 20 nM
GLD-1(135-336) [7]
  Kd: 20 ± 3 nM
